In US20100099610A1 (published 2010):
Residue numbers refer to the chain shown, from its start. Numbers in names are those of the source.

B1: AlaPro-mTGase from S. mobaraensis (enzyme)
chain: APDSDDRVTPPAEPLDRMPDPYRPSYGRAETVVNNYIRKWQQVYSHRDGRKQQMTEEQREWLSYGCVGVTWVNSGQYPTNRLAFASFDEDRFKNELKNGRPRSGETRAEFEGRVAKESFDEEKGFQRAREVASVMNRALENAHDESAYLDNLKKELANGNDALRNEDARSPFYSALRNTPSFKERNGGNHDPSRMKAVIYSKHFWSGQDRSSSADKRKYGDPDAFRPAPGTGLVDMSRDRNIPRSPTSPGEGFVNFDYGWFGAQTEADADKTVWTHGNHYHAPNGSLGAMHVYESKFRNWSEGYSDFDRGAYVITFIPKSWNTAPDKVKQGWP
B2: GlyPro-mTGase_Y75A from S. ladakanum (enzyme)
chain: GPDSDERVTPPAEPLDRMPDPYRPSYGRAETIVNNYIRKWQQVYSHRDGRKQQMTEEQREWLSYGCVGVTWVNSGQAPTNRLAFAFFDEDKYKNELKNGRPRSGETRAEFEGRVAKDSFDEAKGFQRARDVASVMNKALENAHDEGAYLDNLKKELANGNDALRNEDARSPFYSALRNTPSFKDRNGGNHDPSKMKAVIYSKHFWSGQDRSGSSDKRKYGDPEAFRPDRGTGLVDMSRDRNIPRSPTSPGESFVNFDYGWFGAQTEADADKTVWTHGNHYHAPNGSLGAMHVYESKFRNWSDGYSDFDRGAYVVTFVPKSWNTAPDKVKQGWP
B3: GlyPro-mTGase_Y62H_Y75N from S. ladakanum (enzyme)
chain: B2 chain with Y64H, A77N
B4: GlyPro-mTGase_Y62H_Y75F from S. ladakanum (enzyme)
chain: B2 chain with Y64H, A77F, K329T
B5: GlyPro-mTGase_Y75F from S. ladakanum (enzyme)
chain: B2 chain with A77F
B6: GlyPro-mTGase from S. ladakanum (enzyme)
chain: B2 chain with A77Y
B7: GlyPro-mTGase_Y75N from S. ladakanum (enzyme)
chain: B2 chain with A77N
B8: S. ladakanum GlyPro-TGase mutant S250H (enzyme)
chain: B2 chain with A77Y, S252H
B9: S. ladakanum GlyPro-TGase mutant S250C (enzyme)
chain: B2 chain with A77Y, S252C
B10: S. ladakanum GlyPro-TGase mutant S250F (enzyme)
chain: B2 chain with A77Y, S252F
B11: S. ladakanum GlyPro-TGase mutant S250G (enzyme)
chain: B2 chain with A77Y, S252G
B12: S. ladakanum GlyPro-TGase mutant S250L (enzyme)
chain: B2 chain with A77Y, S252L
B13: S. ladakanum GlyPro-TGase mutant S250D (enzyme)
chain: B2 chain with A77Y, S252D

What follows are binders tested against wild type human growth hormone (human, UniProt P01241 27-217) (assay: cell-based or functional assay).
Sequence of wild type human growth hormone (P01241 27-217): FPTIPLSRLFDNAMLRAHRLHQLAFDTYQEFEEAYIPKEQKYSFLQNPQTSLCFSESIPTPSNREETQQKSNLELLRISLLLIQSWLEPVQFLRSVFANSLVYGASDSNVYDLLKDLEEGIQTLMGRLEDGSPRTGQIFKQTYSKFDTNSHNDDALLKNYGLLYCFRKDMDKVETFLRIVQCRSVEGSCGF
For B1, the “RS (relative selectivity against AlaPro-mTGase from S. mobaraensis)” value was 1. With B2 the “RS (relative selectivity against AlaPro-mTGase from S. mobaraensis)” value was 3. With B3 the “RS (relative selectivity against AlaPro-mTGase from S. mobaraensis)” value was 4.6. B4 was tested, and the “RS (relative selectivity against AlaPro-mTGase from S. mobaraensis)” value was 6.4. With B5 the “RS (relative selectivity against AlaPro-mTGase from S. mobaraensis)” value was 5.1. With B6 the “RS (relative selectivity against AlaPro-mTGase from S. mobaraensis)” value was 1.8. B7 was tested, and the “RS (relative selectivity against AlaPro-mTGase from S. mobaraensis)” value was 3.4.

Each binder was assayed against hGHQ40N (human, UniProt P01241 27-217) (assay: cell-based or functional assay).
Sequence of hGHQ40N (P01241 27-217 Q66N): as the sequence (P01241 27-217) above, with Q40N counted along it
For B2, the “RSA Q141” value was 0.06 relative to wild type TGase. B8 was tested, and the “RSA Q141” value was 2.25 relative to wild type TGase. In the case of B9, the “RSA Q141” value is reported as 5.34 relative to wild type TGase. In the case of B10, the “RSA Q141” value is reported as 2.63 relative to wild type TGase. In the case of B11, the “RSA Q141” value is reported as 2.42 relative to wild type TGase. In the case of B12, the “RSA Q141” value is reported as 3.59 relative to wild type TGase. B13 was tested, and the “RSA Q141” value was 1.04 relative to wild type TGase.

These binders were tested against hGHQ141N (human, UniProt P01241 27-217) (assay: cell-based or functional assay).
Sequence of hGHQ141N (P01241 27-217 Q167N): as the sequence (P01241 27-217) above, with Q141N counted along it
B2 was tested, and the “RSA Q40” value was 0.03 relative to wild type TGase. With B8 the “RSA Q40” value was 1.4 relative to wild type TGase. B9 was tested, and the “RSA Q40” value was 3.02 relative to wild type TGase. For B10, the “RSA Q40” value was 1.85 relative to wild type TGase. B11 was tested, and the “RSA Q40” value was 1.77 relative to wild type TGase. For B12, the “RSA Q40” value was 1.9 relative to wild type TGase. For B13, the “RSA Q40” value was 0.76 relative to wild type TGase.
